# Experiment: yeast display, Sf9 membrane polyspecificity reagent, FACS + sequencing; frameworks hold sequencing errors
# Summary of the method: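 Galactose-induced (36–48 hours) yeast carrying a synthetic nanobody display library were exposed to 10% biotinylated, detergent-solubilized Sf9 membrane reagent at 4 °C for 1 hour. FACS followed streptavidin microbead enrichment, using low and high (top ~1%) gates for expression (anti-HA) and reagent binding (streptavidin). Colony PCR, MiSeq 2 × 250 sequencing and CDR-length filtering followed. Labels for polyreactivity reflect the gate of origin.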
row,Sequence,polyreactivity (PSR sort gate)
1,QVQLVESGGRLVQAGGSLRLSCAASGITFGNAMGWYRQAPGKERELVAGITFSSGSTYYADSVKGRFTISRDNAKNTVYLLMNSLKPEDTAVYYCATDSSKHPYSPTLLKFDYWGQGTQVTVSS,low polyreactivity
2,QVQLVESGGRLVQAGGSLRLSCAASGLTFPVYAMGWYRQAPGKEREFVASISGRGASTYYADSVKGRFTISRDNAKNTVYLQMNSLKPEDTAVYYCNADVWLLSYFPEYDYWGQGTQVTVSS,low polyreactivity
3,QVQLVESGGRLVQAGGSLRLSCAASGRIFAQYAMGWYRQAPGKERELVAAISGRGRTTYYADSVKGRFTISRDNEKNNVYLQMNSVKPEDTAAYYCAAKSTYVAGDYSGQGTQVTVSS,high polyreactivity
4,QVQLVESGGRLVQAGGSLRLSCAASGRIFIYNAMGWYRQAPGKERELVAAISVSGGRTYYADSVKGRFTISRDNAKNTVYLQMNSLKPEDTAVYYCNKVRVGSLRGYWGQGTQVTVSS,high polyreactivity
5,QVQLVESGGRLVQAGGSLRLSCAASGRIFRRNAMGWYRQAPGKERELVAAISSSGGRTYYADSVKGRFTISRDNAKNTVYLQMNSLKPEDTAVYYCATRESLEPGYYWGQGTQVTVSS,high polyreactivity
6,QVQLVESGGRLVQAGGSLRLSCAASGRIFVRNAKGWYRQAPGKERELVADITNGGSTNYADSVKGRFTISRDNAKNTVYLQMNSLKPEDTAVVYWAADTLGVYDGDYWGQGTQVTVSS,low polyreactivity
7,QVQLVESGGRLVQAGGSLRLSCAASGRIIYGYAMGWYRQAPGKERELVATITWSGGSTYYADSVKGRFTISRDNAKNTVYLQMNSLKPEDTAVYYCAAYSPFIYQAYRYDYWGQGTLVTVSS,low polyreactivity
8,QVQLVESGGRLVQAGGSLRLSCAASGRTFPVYAMGWYRQAPGKERELVAAISWSGGSTYYADSVKGRFTISRDNAKNTVYLQMNSLKPEDTAVYYCAKAYHLGLGYRFDYWGQGTQVTVSS,high polyreactivity
9,QVQLVESGGRLVQAGGSLRLSCAASGSIFGGNDMGWYRQAPGKERELVAAITSSGGSTYYADSVKGRFTISRDNAKNTVYLQMNSLKPEDTAVYYCNADYYGPYRDYGYWGQGTQVTVSS,low polyreactivity
10,QVQLVESGGRLVQAGGSLRLSCAASGSIFTVYAMGCYRQAPGKERELVAAIRRTGSRTYYADSVKGRFTNSRDNAKNTVYLQMNSLKPEDTAVYYCAADVWFDRRSVRLNYWGQGTQVTVSS,high polyreactivity
11,QVQLVESGGRLVQAGGSLRLSCAASGSILDGNTMGWYRQAPGKEMELVAAITWDGTSTYYADSVKGRFTISRDNAKNTVYLQMNSLKPEDTAVYYCAATKGYSDQSTGYYAYIHYDYWGQGTQVTVSS,low polyreactivity
12,QVQLVESGGRLVQAGGSLRLSCAASGSNFETYDMGWYRQAPRKERELVAAITLSGGSTYYADSVKGRFTISRDNAKNTVYLQMNSLKPEDTAVYYCAADDSGVKVWEGDYWGQGTQVTVSS,low polyreactivity
13,QVQLVESGGRLVQAGGSLRLSCAASGSTFDYNAMGWYRQEPGKESEFVAAITSTGGNTYYADSVKGRFTISRDNAKNTVYLQMNSLKPEDTAVDYCNKDVARYPYGKFDYWGQGTQVTVSS,low polyreactivity
14,QVQLVESGGRLVQAGGSLRLSCAASGSTFHSYVMGWYRQAPGKERELVAAITSRGGSTNYADSVKGRFTISRDNAKNTVYLKMNSLIPEDTAVYYCAADCYWGWSYFRYDYWGQVTQVTVSS,low polyreactivity
15,QVQLVESGGRLVQAGGSLRLSCAASGSTFTVIGMGWYRQAPGKERELVASITWSGGSTYYADSVKGRFTISRDNAKNTVYLQMTSLIPEDTAVYYCAADEKLYITGYDYWGQGTQVTVSS,low polyreactivity
16,QVQLVESGGRLVQAGGSLRLSCAASGSTFYPYAMGWYRQAPGKERELVAAINGNGGRTYYADSVKGRFTISRDNAKNTVYLQMNSLKPEDTAVFYCAVVRVAWGHRSDYWGQGTQVTVSS,high polyreactivity
17,QVQLVESGGRLVQAGGSLRLSCAASGYTFPYANGWYRQAPGKERELVAGITSSGGSTYYADSVKGRFTISRDNAKNTVYLQMNSVKPEDTAVYYCNADVFVWLYPHYLIFDYWGQGTQVTVSS,low polyreactivity
18,QVQLVESGGRLVQAGGSLRLSCAATGSTFYKNPMGRYRHAPRKEREVVAAISTSGGSTYYADSLKGRFTISRDNAKNTVYLHMNRLKPEDTAVNYCATRRRIPSSCYYDNDYWGQGTQVTVSS,high polyreactivity
19,QVQLVESGGRLVQAGGSLRLSCASSGRTFYPNAMGWYRHAPGKESELVAGIRSSGDSTYYADSVKGRFTISRDNAKNTVYLQMNSLKPEDTAVYYCNRDLTPSYDYWGQCTQVTVSS,low polyreactivity
20,QVQLVESGGRLVQAGGSLRLSSAASGRTFTSYAMGWYRQSPGKERELVAAISRRGGSTYYADSVKGRFTISRDNAKNTVYLQMNSLKPEDTAVYYCNKATRYYLVELNYWGQGTQVTVSS,high polyreactivity
21,QVQLVESGGRLVQAGGSLRLTCAASGRTFNYYAMGWYRQAPGKERELVAAISRSGGSTYYADSVKGRFTISRDNAKNTVYLQMNSLKPEDTAVYYCNRDRGSIYGWGQGTQVTVSS,high polyreactivity
22,QVQLVESGGRLVQAGGSLRLTLAASGNTRGSYAMGWYRQAPGKEREFVATISKRGGSTYYADSVKGRFTISRDNAKNTVYLQMNSLKPEDTAVYYCNKDPYSIYRPGSGQGYAFNYWGQGTQVTVSS,high polyreactivity

row,Sequence,polyreactivity (PSR sort gate)
1,QVQLVESGGRLVQAGGSLRVSCAASGSIFRIYSMGWYRQAPGKERELVATISSTGSTYYADSVKGRFTISRDNAKNSVYLQLNSQKPEDTAVYYCAALWKVSSRYWRMDYWGQGTQVTVSS,high polyreactivity
2,QVQLVESGGRLVQAGGSRRLSCAGSGSIFHHNAMGSYRQAPGKESELVAAISSRSGNTYYADSVKGRFTISRDNAKNTVYLQMNSLKPEDPAVYYCAAGIRLSYSTYDSWGQGTQVTVSS,high polyreactivity
3,QVQLVESGGRLVQARGSLRLSCAASGSIFATYVMGWYRQAPGKERELVATITYSGDSTYYADSVKGRFTISRDNAKNTVYLQMNSVKPEDTAVYYCAADYFTLYPYRGFDYWGQGTQVTVSS,low polyreactivity
4,QVQLVESGGSLVQAGGSLRLSCAASGFIFQDNAMGWYRQAPGKERELVAAIRSTGSTNYADSVKGRFTISRDNAKNTVYLQMNSLKPEDTAVYYCNAGKYQSDTPSLVPTEYPAFYYWGQGTQVTVSS,low polyreactivity
5,QVQLVESGGSLVQAGGSLRLSCSASGFIFYTNAMGWYRQAPGKERELVAAISSRGTRTYYADSVKGRFTISRDNAKNSVYLQLNSLKPEDTAVYYCAVRTRYLGLEYYYWGQGSQVTVSS,high polyreactivity
6,QVQLVESGGSLVQAGGSLRLSSAASGITFSDYAMRWYRPAPGKESELVAGITSGGSTYYADSVKGRFTISRDNAKNTVYLQMNSLKPEDSAVYYCAAVRRWKYDWGQGTQVTVSS,high polyreactivity
7,QVQLVESGGVLDQAGGSLRLSCAASGRIYFNKAMGWYRPAPGKEWELVAAINAGGRTNYADSVKGRFTISRDNEKNTVFLHMTSLKQEDTSVYYCNADDNPVWEYDYWGQGTQVTVSS,low polyreactivity
8,QVQLVESGGVLGQAGGSLRLSCAPSGSLIGGYAMGWYRQAPGKQRELVAAISYRGATTYYADSVKGRFTISRDNSKNTVYFQMNSLKPEDTAVYYCDVAARTRARVLYGYDYGGQGTQVTVSS,low polyreactivity
9,QVQLVESGGVLVHAGGILRLSCAASGSTIVRYAMGWYRQAPGKERELVAAKSSRGGSTYYADSVKGRFTITRDNAKNTVYLQMNILKPEDTGVYYCSAAPPGTIAYRVGSWGQGTQVTVSS,high polyreactivity
10,QVQLVESGGVLVQAGARLRLSSAASRFTLALNTMGCYIQAPVKERELVAAISWSGGSTFADSVKGRFTISRDNAKNTFYLQMNSLKPEDTAVYYCAAPLHVAGGYSRDFGSWGQGTQVTVSS,low polyreactivity
11,QVQLVESGGVLVQAGASLRLSCAASVRIFWLNARGCYRQAPGKEREFVASITYGSDSTYYSDSVNGRFTISRDNAKNTVYLQMNSLIPEDTSVYYCNREGWHYGPYEYWGQVTQVTVSS,low polyreactivity
12,QVQLVESGGVLVQAGGILRLSCAASVRTFYRYAMGWYRQAPGKERELVAAITSGDRTNYADSVKGRFTMSRDNAKNTVYLQMNSLKPEYTADYYCAARRDYWAPYYYWGQGTQVTVSS,high polyreactivity
13,QVQLVESGGVLVQAGGSLRISCAASGFIFAYNAMGWYRQAPGKETELVAAISWNGGNTYYADSVKGRFTISRDNAKNTVYLQMNSLKPEDTAVYYCAAIPKPFRSYGYWGKGTQVTVSS,high polyreactivity
14,QVQLVESGGVLVQAGGSLRLSCAASGFIFKKYAMGWYRQEPGKEMELVAAITIGGSTYYADSVKGRFTISRDNAKNTVYLQMNSLKPEDTAVYYCAAVQGKVRGGYYWGQGTQVTVSS,high polyreactivity
15,QVQLVESGGVLVQAGGSLRLSCAASGFIFSEYAMGWYRHAPGKERELVAAISRSGGRTYYADSVKGRFTISRDNAKNTVYLQMNSLKPEDTAVYYCAAVWWWYYNHYYYWGQGTLVTVSS,high polyreactivity
16,QVQLVESGGVLVQAGGSLRLSCAASGFINLRYAMGWYRQAPGKERELVAAITSGGNTYYADSVKGRFTISRDNAKNTVSLQRNSLKQEDTAVYYCAAERFVITYPISRYYYWGQGTQVTVSS,low polyreactivity
17,QVQLVESGGVLVQAGGSLRLSCAASGFTFDYYAMGWYIPAPGKERELVASISYNGGITNYADSVQGRFTISRDNAKNTVFLHMHSLKPEDTAVYYWNAVPLYYWRFDYWGQGTQVTVSS,low polyreactivity
18,QVQLVESGGVLVQAGGSLRLSCAASGFTFSHNAMGWYRLARGKERELVAAISKGGSSTYYADSVKGRFTISRDNAKNTVYLQMNSLKPEDTAVYYCARPSPHKGYDYWGQGTQVTESS,high polyreactivity
19,QVQLVESGGVLVQAGGSLRLSCAASGFTFSLYAMGWYRQAPGKERELVASISRSGGSTYYADSVKGRFTISRDNAKNTVYLQMNSLKPEDTAVYSCAARWRPYKYDSWGQGTQVTVSS,high polyreactivity
20,QVQLVESGGVLVQAGGSLRLSCAASGFTFWSYAMGWYRQAPGKERELVAAISSGDNTYYADSVKGRFTISRDNAKNTVYLQMNSLKPEDTAVYYCNAFYYYEYDYWGQGTQVTVSS,low polyreactivity
21,QVQLVESGGVLVQAGGSLRLSCAASGIIFFGYAMGWYRQAPGKERELFAAISYSTGGTSTYADSVKGRFTISRDNAKNTVYLQKNSLKPEDTAVYYCAVRRQYRRAYSFSQSRYDYWGQGTQVTVSS,high polyreactivity

# From the nanobody polyreactivity screen of Harvey et al. (2022)
